Experimental data published in patent publication US6486303 (UNIVERSITY OF MEDICINE AND DENTISTRY OF NEW JERSEY, dated 2002).

Target: T1, rat LH receptor (rat, UniProt P16235 27-700)
T1 construct: whole, on cells; also called LH receptors
Test: not described

T1 sequence (P16235 27-700): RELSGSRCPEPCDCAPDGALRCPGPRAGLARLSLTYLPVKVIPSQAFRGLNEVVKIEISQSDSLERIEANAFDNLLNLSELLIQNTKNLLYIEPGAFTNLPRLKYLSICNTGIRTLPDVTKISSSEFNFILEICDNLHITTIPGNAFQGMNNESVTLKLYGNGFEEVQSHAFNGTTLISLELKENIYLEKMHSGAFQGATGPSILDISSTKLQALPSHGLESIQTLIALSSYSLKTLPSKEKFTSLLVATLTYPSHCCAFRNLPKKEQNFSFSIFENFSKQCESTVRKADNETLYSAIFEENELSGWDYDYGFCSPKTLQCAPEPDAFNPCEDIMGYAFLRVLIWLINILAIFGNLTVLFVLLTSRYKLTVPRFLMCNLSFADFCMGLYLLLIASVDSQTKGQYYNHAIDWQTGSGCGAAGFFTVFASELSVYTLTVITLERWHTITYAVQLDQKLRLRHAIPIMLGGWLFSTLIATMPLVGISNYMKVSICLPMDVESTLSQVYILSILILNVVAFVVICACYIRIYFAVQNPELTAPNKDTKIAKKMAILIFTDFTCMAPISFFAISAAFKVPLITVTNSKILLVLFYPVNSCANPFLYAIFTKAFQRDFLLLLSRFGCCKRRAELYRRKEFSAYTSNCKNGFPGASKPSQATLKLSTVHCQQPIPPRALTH

B1: Fos-αδ52 + Jun-hCGβ′ heterodimer (ligand)
alpha: not shown
beta: SCGGRIARLEEKVKTLKAQNSELASTANMLREQVAQLKQKVMGLRPRCRPINATLAVEKEGCPVCITVNTTICAGYCPTMTRVLQGVLPALPQVVCNYRDVRFESIRLPGCPRGVNPVVSYAVALSCQCALCRRSTTDCGGPKDHPLTCDDPRFQDSSSSKAPPPSLPSPSRLPGPSDTPILPQ
modifications: The Cys of the N-terminal SCGG in each chain is meant to form an intersubunit disulfide.
notes: Secreted from co-transfected COS-7 cells; also called Fos-Jun hCGαδ2; copies: 1 + 1
binding result: binds
